According to the DeepSol protein solubility set:

Assay: soluble on expression in E. coli; label from the status in PepcDB or PDB records

Soluble on expression in E. coli, not soluble:
RSKYNAKKVVIDNIKFDSKAEAAYYQQLKLLKMSGEVVSFDLQPEFVLQESFRKNGKLYRAIKYKADFLVRYSDGHEELIDIKGMLTKEFRIKQKLFELRYMQSIKCLKLKGRNFVEV
SAYIHIPFCEHICHYCDFNKYFIQSQPVDEYLNALEQEMINTIAKTGQPDLKTIFIGGGTPTSLSEEQLKKLMDMINRVLKPSSDLSEFAVDANPDDLSAEKLKILKEAGVNRLSFGVQTFEDDLLEKIGRVHKQKDVFTSFERAREIGFENISLDLMFGLPGQTLKHLEHSINTALSLDAEHYSVYSLIVEPKTVFYNLMQKGRLHLPPQEQEAEMYEIVMSKMEAHGIHQYEISNFAKAGMESKHNLTYWSNEQYFGFGAGAHGYIGGTRTVNVGPVKHYIDLIAEKGFPYRDTHEVTTEEQIEEEMFLGLRKTAGVSKKRFAEKYGRSLDGLFPSVLKDLAEKGLIHNSES
SDTRQLPNRPVEVTIMGLGCAQMGNLYRVTPYEESKGAFDKAWESGMRYFDTAPFYGYTRSERRLGTMVTEHDRGDYTLSTKVGRVMVPDETVGPEEDAYIAPLPFRPVYDYSYDGILRSFEASQQRLGILKPDILYVHDIGSHTHGEKHQHYWEQLTTGGGFRALGKLRDEGSTGAVGLGVNEWEIINDAMDVFDIDVAMLAGRYTLLEQQSLAFMNRCAESGVAIVVAGAFNSGILAGNRKFNYADAPADILKRVDALHNVCEELGVSLQAAALQFPLAHPASVTVVSGARNAQQLASNIEWFEQSIPDEFWSELHK

Soluble on expression in E. coli, soluble:
RRRRPSSSRRLRGRGAAQMACPALGLEALQPLQPEPPPEPAFSEAQKWIEQVTGRSFGDKDFRTGLENGILLCELLNAIKPGLVKKINRLPTPIAGLDNIILFLRGCKELGLKESQLFDPSDLQDTSNRVTVKSLDYSRKLKNVLVTIYWLGKAANSCTSYSGTTLNLKEFEGLLAQMRKDTDDIESPKRSIRDSGYIDCWDSERSDSLSPPRHGRDDSFDSLDSFGSRSRQTPSPDVVLRGSSDGRGSDSESDLPHRKLPDVKKDDMSARRTSHGEPKSAVPFNQYLPNKSNQTAYVPAPLRKKKAEREEYRKSWSTATSPLGGERPFRYGPRTPVSDDAESTSMFDMRCEEEAAVQPHSRARQEQLQLINNQLREEDDKWQDDLARWKSRRRSVSQDLIKKEEERKKMEKLLAGEDGTSERRKSIKTYREIVQEKERRERELHEAYKNARSQEEAEGILQQYIERFTISEAVLERLEMPKILERSHSTEPNLSSFLNDPNPMKYLRQQSLPPPKFTATVETTIARASVLDTSMSAGSGSPSKTVTPKAVPMLTPKPYSQPKNSQDVLKTFKVDGKVSVNGETVHREEEKERECPTVAPAHSLTKSQMFEGVARVHGSPLELKQDNGSIEINIKKPNSVPQELAATTEKTEPNSQEDKNDGGKSRKGNIELASSEPQHFTTTVTRCSPTVAFVEFPSSPQLKNDVSEEKDQKKPENEMSGKVELVLSQKVVKPKSPEPEATLTFPFLDKMPEANQLHLPNLNSQVDSPSSEKSPVTTPQFKFWAWDPEEERRRQEKWQQEQERLLQERYQKEQDKLKEEWEKAQKEVEEEERRYYEEERKIIEDTVVPFTVSSSSADQLSTSSSMTEGSGTMNKIDLGNCQDEKQDRRWKKSFQGDDSDLLLKTRESDRLEEKGSLTEGALAHSGNPVSKGVHEDHQLDTEAGAPHCGTNPQLAQDPSQNQQTSNPTHSSEDVKPKTLPLDKSINHQIESPSERRKKSPREHFQAGPFSPCSPTPPGQSPNRSISGKKLCSSCGLPLGKGAAMIIETLNLYFHIQCFRCGICKGQLGDAVSGTDVRIRNGLLNCNDCYMRSRSAGQPTTL
RTCRIHEISCGAHSTQCIPVSWRCDGENDCDSGEDEENCGN
SAAGSEATTPVIVAAGAGGEEGEHVKPFKPEKAKEIIMSLQQPAIFCNMVFDWPARHWNAKYLSQVLHGKQIRFRMGMKSMSTVPQFETTCNYVEATLEEFLTWNCDQSSISGPFRDYDHSKFWAYADYKYFVSLFEDKTDLFQDVKWSDFGFPGRNGQESTLWIGSLGAHTPCHLDSYGCNLVFQVQGRLECNGMIIAPGPQAILLPQPLKYLGLQETMASLSS
SAASEHRCVGCGFRVKSLFIQYSPGNIRLMKCGNCKEVADEYIECERMIIFIDLILHRPKVYRHVLYNAINPATVNIQHLLWKLVFAYLLLDCYRSLLLRKSDEESSFSDSPVLLSIKVRSFLFNGLN
SAAVALRDSAQGTVTFEDVAVNFSQEEWSLLSEAQRCLYHDVMLENLTLISSLGCWYGAKDETPSKQTLSIQQESPLRTHWTGVCTKKVHLWGMCGPLLGDILHQGTQHNQKLNGFGAYEKKLDDDANHHQDQKQHIGEKSYRSNAKENE
SADDFGFFSSSESGAPEAAEEDPAAAFLAQQESEIAGIENDEGFGAPAGSHAAPAQPGPTSGAGSEDMGTTVNGDVFQEANGPADGYAAIAQADRLTQEPESIRKWREEQRKRLQELDAASKVTEQEWREKAKKDLEEWNQRQSEQVEKNKINNRASEEAFVKESKEETPGTEWEKVAQLCDFNPKSSKQCKDVSRLRSVLMSLKQTPLSR
SADSKEGVLPLTAASTAPISFGFTRTSARRRLADSGDGAGPSPEEKDFLKTVEGRELQSVKPQEAPKELVIPLIQNGHRRQPPARPPGPSTDTGALADGVVSQAVKELIAESKKSLEERENAGVDPTLAIPMIQKGCTPSGEGADSEPRAETVPEEANYEAVPVEAYGLAMLRGMGWKPGEGIGRTFNQVVKPRVNSLRPKGLGLGANLTEAQALTPTGPSRMPRPDEEQEKDKEDQPQGLVPGGAVVVLSGPHRGLYGKVEGLDPDNVRAMVRLAVGSRVVTVSEYYLRPVSQQEFDKNTLDLRQQNGTASSRKTLWNQELYIQQDNSERKRKHLPDRQDGPAAKSEKAAPRSQHWLHRDLRVRFVDNMYKGGQYYNTKMIIEDVLSPDTCVCRTDEGRVLEGLREDMLETLVPKAEGDRVMVVLGPQTGRVGHLLSRDRARSRALVQLPRENQVVELHYDAICQYMGPSDTDDD
SAGTGLVAGEVVVDALPYFDQGYEAPGVREAAAALVEEETRRYRPTKNYLSYLTAPDYSAFETDIMRNEFERLAARQPIELLSMKRYELPAPSSGQKNDITAWQECVNNSMAQLEHQAVRIENLELMSQHGCNAWKVYNENLVHMIEHAQKELQKLRKHIQDLNWQRKNMQLTAGSKLREMESNWVSLVSKNYEIERTIVQLENEIYQIKQQHGEANKENIRQDF
SAMKPTAGPTTNADLTSAPPHDIFISHAWEDKADFVEALAHTLRAAGAEVWYDDFSLRPGDSLRRSIDKGLGSSRFGIVVLSTHFFKKEWPQKELDGLFQLESSGRSRILPIWHKVSKDEVASFSPTMADKLAFNTSTKSVDEIVADLMAIIRD
SAMNGFERELQSRVLSVIPHGELEGVNGPLQNYTKTMNQALQHEHVVAAAPYVRFTGLAEKGSKLKAIEVRGVDPAYEQAVSSMSDFIDPEAWQNFYSGQQQVILGRGVANELKVQVGDYVTLMIPQTGGTNKVQAPKRVRVKVAGFLTLNGQIDHSLALVPLADAQQYVRLGDGVTGISLKTDDVLDAPSIVREVGNLVNVYVYLKSWQQQFGFLYRDIQLVRT
SAQEKMELDLELPPGTGGSPAEGGGSGGGGGLRRSNSAPLIHGLSDTSPVFQAEAPSARRNSTTFPSRHGLLLPASPVRMHSSRLHQIKQEEGMDLINRETVHEREVQTAMQISHSWEESFSLSDNDVEKSASPKRIDFIPVSPAPSPTRGIGKQCFSPSLQSFVSSNGLPPSPIPSPTTRFTTRRSQSPINCIRPSVLGPLKRKCEMETEYQPKRFFQGITNMLSSDVAQLSDPGVCVSSDTLDGNSSSAGSSCNSPAKVSTTTDSPVSPAQAASPFIPLDELSSK
SATFVSELEAAKKNLSEALGDNVKQYWANLKLWFKQKISKEEFDLEAHRLLTQDNVHSHNDFLLAILTRCQILVSTPDGAGSLPWPGGSAAKPGKPKGKKKLSSVRQKFDHRFQPQNPLSGAQQFVAKDPQDDDDLKLCSHTMMLPTRGQLEGRMIVTAYEHGLDNVTEEAVSAVVYAVENHLKDILTSVVSRRKAYRLRDGHFKYAFGSNVTPQPYLKNSVVAYNNLIESPPAFTAPCAGQNPASHPPPDDAEQQAALLLACSGDTLPASLPPVNMYDLFEALQVHREVIPTHTVYALNIERIITKLWHPNHEELQQDKVHRQRLAAKEGLLLC
SDAALLLNVEGVKKTILHGGTGELPNFITGSRVIFHFRTMKCDEERTVIDDSRQVGQPMHIIIGNMFKLEVWEILLTSMRVHEVAEFWCDTIHTGVYPILSRSLRQMAQGKDPTEWHVHTCGLANMFAYHTLGYEDLDELQKEPQPLVFVIELLQVDAPSDYQRETWNLSNHEKMKAVPVLHGEGNRLFKLGRYEEASSKYQEAIICLRNLQTKEKPWEVQWLKLEKMINTLILNYCQCLLKKEEYYEVLEHTSDILRHHPGIVKAYYVRARAHAEVWNEAEAKADLQKVLELEPSMQKAVRRELRLLENRMAEKQEEERLRCRNMLSQGATQPPAEPPTEPPAQSSTEPPAEPPTAPSAELSAGPPAEPATEPPPSPGHSLQH
SDAMDKRLKIATIGGGSSYTPELVEGLIKRYHELPVGELWLVDIPEGKEKLEIVGALAKRMVEKAGVPIEIHLTLDRRRALDGADFVTTQFRVGGLEARAKDERIPLKYGVIGQETNGPGGLFKGLRTIPVILDIIRDMEELCPDAWLINFTNPAGMVTEAVLRYTKQEKVVGLCNVPIGMRMGVAKLLGVDADRVHIDFAGLNHMVFGLHVYLDGVEVTEKVIDLVAHPDRSGVTMKNIVDLGWEPDFLKGLKVLPCPYHRYYFQTDKMLAEELEAAKTKGTRAEVVQQLEKELFELYKDPNLAIKPPQLEKRGGAYYSDAACSLISSIYNDKRDIQPVNTRNNGAIASISAESAVEVNCVITKDGPKPIAVGDLPVAVRGLVQQIKSFERVAAEAAVTGDYQTALVAMTINPLVPSDTIAKQILDEMLEAHKEYLPQFFKQAKATAGN
SDLVGVASPEPGTAAAWGPSKCPWAIPQNTISCSLADVMSEQLAKELQLEEEAAVFPEVAVAEGPFITGENIDTSSDLMLAQMLQMEYDREYDAQLRREEKKFNGDSKVSISFENYRKVHPYEDSDSSEDEVDWQDTRDDPYRPAKPVPTPKKGFIGKGKDITTKHDEVVCGRKNTARMENFAPEFQVGDGIGMDLKLSNHVFNALKQHAYSEERRSARLHEKKEHSTAEKAVDPKTRLLMYKMVNSGMLETITGCISTGKESVVFHAYGGSMEDEKEDSKVIPTECAIKVFKTTLNEFKNRDKYIKDDFRFKDRFSKLNPRKIIRMWAEKEMHNLARMQRAGIPCPTVVLLKKHILVMSFIGHDQVPAPKLKEVKLNSEEMKEAYYQTLHLMRQLYHECTLVHADLSEYNMLWHAGKVWLIDVSQSVEPTHPHGLEFLFRDCRNVSQKGGVKEALSERELFNAVSGLNITADNEADFLAEIEALEKMNEDHVQKNGRKAASFLKDDGDPPLLYDE
SDPRGTKRGAEKTEVAEPRNKLPRPAPSLPTDPALYSGPFPFYRRPSELGCFSLDAQRQYHGDARALRYYSPPPTNGPGPNFDLRDGYPDRYQPRDEEVQERLDHLLCWLLEHRGRLEGGPGWLAEAIVTWRGHLTKLLTTPYERQEGWQLAASRFQGTLYLSEVETPNARAQRLARPPLLRELMYMGYKFEQYMCAGELPLLHSPLPLPRG
SDSQSSILEENLEKILRGEGLEFDSVAEQVDPVTLRKNVCYIVGAVIFNSKEEVLMVQEAKRECYGRWYLPAGRMEECESILEALQREVREEAGIDCQPITLLLVQEQGPRWVRFIFLAEETGGSLKTTAEADDESLQAHWWDRKSPLPLRAHDILSLIDAGLKYRRNPWFPVTQPVDFPCHVVCQRLFLTFISSRADADDRLWLLMSNNNTSHHPRLPIVVSFRTYISKAVSKLIEDCMPSSYISVHIRGILGVQHNGRIPGKTDGICFNTLVLLENTEEGAEIGSPPSLETDCYRWQEVTNQGLKAKIIERIKDGSVLPFQSL
